Laboratory results from IntAct's records for PubMed 23901104.

B1: Vacuolar protein sorting-associated protein 33A (Homo sapiens), Q96AX1 (parent)
chain: MAAHLSYGRVNLNVLREAVRRELREFLDKCAGSKAIVWDEYLTGPFGLIAQYSLLKEHEVEKMFTLKGNRLPAADVKNIIFFVRPRLELMDIIAENVLSEDRRGPTRDFHILFVPRRSLLCEQRLKDLGVLGSFIHREEYSLDLIPFDGDLLSMESEGAFKECYLEGDQTSLYHAAKGLMTLQALYGTIPQIFGKGECARQVANMMIRMKREFTGSQNSIFPVFDNLLLLDRNVDLLTPLATQLTYEGLIDEIYGIQNSYVKLPPEKFAPKKQGDGGKDLPTEAKKLQLNSAEELYAEIRDKNFNAVGSVLSKKAKIISAAFEERHNAKTVGEIKQFVSQLPHMQAARGSLANHTSIAELIKDVTTSEDFFDKLTVEQEFMSGIDTDKVNNYIEDCIAQKHSLIKVLRLVCLQSVCNSGLKQKVLDYYKREILQTYGYEHILTLHNLEKAGLLKPQTGGRNNYPTIRKTLRLWMDDVNEQNPTDISYVYSGYAPLSVRLAQLLSRPGWRSIEEVLRILPGPHFEERQPLPTGLQKKRQPGENRVTLIFFLGGVTFAEIAALRFLSQLEDGGTEYVIATTKLMNGTSWIEALMEKPF
partner: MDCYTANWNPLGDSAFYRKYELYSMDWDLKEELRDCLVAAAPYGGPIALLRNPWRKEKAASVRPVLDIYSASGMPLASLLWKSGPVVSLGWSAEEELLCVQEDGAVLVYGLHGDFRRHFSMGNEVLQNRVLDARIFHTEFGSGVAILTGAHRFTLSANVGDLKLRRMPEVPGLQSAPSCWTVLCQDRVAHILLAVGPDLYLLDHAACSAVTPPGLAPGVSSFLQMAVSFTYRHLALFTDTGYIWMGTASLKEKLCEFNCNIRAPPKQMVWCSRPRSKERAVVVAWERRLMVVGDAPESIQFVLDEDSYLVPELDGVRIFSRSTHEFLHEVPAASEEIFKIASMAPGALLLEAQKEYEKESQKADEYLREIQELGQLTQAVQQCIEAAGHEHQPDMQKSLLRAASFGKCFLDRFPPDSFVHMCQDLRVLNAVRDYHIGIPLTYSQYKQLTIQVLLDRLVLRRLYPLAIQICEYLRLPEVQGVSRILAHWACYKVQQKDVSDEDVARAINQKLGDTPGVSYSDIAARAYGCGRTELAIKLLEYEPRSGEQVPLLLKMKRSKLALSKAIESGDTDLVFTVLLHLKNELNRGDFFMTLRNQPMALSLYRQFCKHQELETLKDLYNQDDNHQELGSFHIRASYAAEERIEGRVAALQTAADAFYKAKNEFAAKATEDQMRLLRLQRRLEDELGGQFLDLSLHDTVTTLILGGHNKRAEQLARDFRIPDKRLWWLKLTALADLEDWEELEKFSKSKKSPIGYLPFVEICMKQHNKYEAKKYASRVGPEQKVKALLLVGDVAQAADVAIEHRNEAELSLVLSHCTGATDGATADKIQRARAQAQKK
B2: Vacuolar protein sorting-associated protein 16 homolog (Homo sapiens), Q9H269 (parent)
chain: B1 partner
partner: B1 chain

Variants of: B1
Conditions: with vps16_human VPS16, Q9H269

Variant	effect of a mutation on the interaction
MAAHLSYGRVNLNVLREAVRRELREFLDKCAGSKAIVWDEYLTGPFGLIAQYSLLKEHEVEKMFTLKGNRLPAADVKNIIFFVRPRLELMDIIAENVLSEDRRGPTRDFHILFVPRRSLLCEQRLKDLGVLGSFIHREEYSLDLIPFDGDLLSMESEGAFKECYLEGDQTSLYHAAKGLMTLQALYGTIPQIFGKGECARQVANMMIRMKREFTGSQNSIFPVFDNLLLLDRNVDLLTPLATQLTYEGLIDEIYGIQNSYVKLPPEKFAPKKQGDGGKDLPTEAKKLQLNSAEELYAEIRDKNFNAVGSVLSKKAKIISAAFEERHNAKTVGEIKQFVSQLPHMQAARGSLANHTSIAELIKDVTTSEDFFDKLTVEQEFMSGIDTDKVNNYIEDCIAQKHSLIKVLRLVCLQSVCNSGLKQKVLDYYKREILQTYGYEHKLTLHNLEKAGLLKPQTGGRNNYPTIRKTLRLWMDDVNEQNPTDISYVYSGYAPLSVRLAQLLSRPGWRSIEEVLRILPGPHFEERQPLPTGLQKKRQPGENRVTLIFFLGGVTFAEIAALRFLSQLEDGGTEYVIATTKLMNGTSWIEALMEKPF [I441K]	disrupting interaction
MAAHLSYGRVNLNVLREAVRRELREFLDKCAGSKAIVWDEYLTGPFGLIAQYSLLKEHEVEKMFTLKGNRLPAADVKNIIFFVRPRLELMDIIAENVLSEDRRGPTRDFHILFVPRRSLLCEQRLKDLGVLGSFIHREEYSLDLIPFDGDLLSMESEGAFKECYLEGDQTSLYHAAKGLMTLQALYGTIPQIFGKGECARQVANMMIRMKREFTGSQNSIFPVFDNLLLLDRNVDLLTPLATQLTYEGLIDEIYGIQNSYVKLPPEKFAPKKQGDGGKDLPTEAKKLQLNSAEELYAEIRDKNFNAVGSVLSKKAKIISAAFEERHNAKTVGEIKQFVSQLPHMQAARGSLANHTSIAELIKDVTTSEDFFDKLTVEQEFMSGIDTDKVNNYIEDCIAQKHSLIKVLRLVCLQSVCNSGLKQKVLDYYDREILQTYGYEHILTLHNLEKAGLLKPQTGGRNNYPTIRKTLRLWMDDVNEQNPTDISYVYSGYAPLSVRLAQLLSRPGWRSIEEVLRILPGPHFEERQPLPTGLQKKRQPGENRVTLIFFLGGVTFAEIAALRFLSQLEDGGTEYVIATTKLMNGTSWIEALMEKPF [K429D]	disrupting interaction
MAAHLSYGRVNLNVLREAVRRELREFLDKCAGSKAIVWDEYLTGPFGLIAQYSLLKEHEVEKMFTLKGNRLPAADVKNIIFFVRPRLELMDIIAENVLSEDRRGPTRDFHILFVPRRSLLCEQRLKDLGVLGSFIHREEYSLDLIPFDGDLLSMESEGAFKECYLEGDQTSLYHAAKGLMTLQALYGTIPQIFGKGECARQVANMMIRMKREFTGSQNSIFPVFDNLLLLDRNVDLLTPLATQLTYEGLIDEIYGIQNSYVKLPPEKFAPKKQGDGGKDLPTEAKKLQLNSAEELYAEIRDKNFNAVGSVLSKKAKIISAAFEERHNAKTVGEIKQFVSQLPHMQAARGSLANHTSIAELIKDVTTSEDFFDKLTVEQEFMSGIDTDKVNNYIEDCIAQKHSLIKVLRLVCLQSVCNSGLKQKVLDYYKREILQTYGPEHILTLHNLEKAGLLKPQTGGRNNYPTIRKTLRLWMDDVNEQNPTDISYVYSGYAPLSVRLAQLLSRPGWRSIEEVLRILPGPHFEERQPLPTGLQKKRQPGENRVTLIFFLGGVTFAEIAALRFLSQLEDGGTEYVIATTKLMNGTSWIEALMEKPF [Y438P]	disrupting interaction strength
MAAHLSYGRVNLNVLREAVRRELREFLDKCAGSKAIVWDEYLTGPFGLIAQYSLLKEHEVEKMFTLKGNRLPAADVKNIIFFVRPRLELMDIIAENVLSEDRRGPTRDFHILFVPRRSLLCEQRLKDLGVLGSFIHREEYSLDLIPFDGDLLSMESEGAFKECYLEGDQTSLYHAAKGLMTLQALYGTIPQIFGKGECARQVANMMIRMKREFTGSQNSIFPVFDNLLLLDRNVDLLTPLATQLTYEGLIDEIYGIQNSYVKLPPEKFAPKKQGDGGKDLPTEAKKLQLNSAEELYAEIRDKNFNAVGSVLSKKAKIISAAFEERHNAKTVGEIKQFVSQLPHMQAARGSLANHTSIAELIKDVTTSEDFFDKLTVEQEFMSGIDTDKVNNYIEDCIAQKHSLIKVLRLVCLQSVCNSGLKQKVLDYYKREILQTYGDEHILTLHNLEKAGLLKPQTGGRNNYPTIRKTLRLWMDDVNEQNPTDISYVYSGYAPLSVRLAQLLSRPGWRSIEEVLRILPGPHFEERQPLPTGLQKKRQPGENRVTLIFFLGGVTFAEIAALRFLSQLEDGGTEYVIATTKLMNGTSWIEALMEKPF [Y438D]	disrupting interaction

Variants of: B2
Conditions: with vp33a_human VPS33A

Variant	effect of a mutation on the interaction
A669D	decreasing interaction
R725E	disrupting interaction
